Test results as given in paper PMC3630463 (Nature communications, 2013).

T1: rVps1 (His-Vps1; yeast dynamin homolog Vps1) (Saccharomyces cerevisiae, UniProt P21576)
T1 sequence (P21576 1-704): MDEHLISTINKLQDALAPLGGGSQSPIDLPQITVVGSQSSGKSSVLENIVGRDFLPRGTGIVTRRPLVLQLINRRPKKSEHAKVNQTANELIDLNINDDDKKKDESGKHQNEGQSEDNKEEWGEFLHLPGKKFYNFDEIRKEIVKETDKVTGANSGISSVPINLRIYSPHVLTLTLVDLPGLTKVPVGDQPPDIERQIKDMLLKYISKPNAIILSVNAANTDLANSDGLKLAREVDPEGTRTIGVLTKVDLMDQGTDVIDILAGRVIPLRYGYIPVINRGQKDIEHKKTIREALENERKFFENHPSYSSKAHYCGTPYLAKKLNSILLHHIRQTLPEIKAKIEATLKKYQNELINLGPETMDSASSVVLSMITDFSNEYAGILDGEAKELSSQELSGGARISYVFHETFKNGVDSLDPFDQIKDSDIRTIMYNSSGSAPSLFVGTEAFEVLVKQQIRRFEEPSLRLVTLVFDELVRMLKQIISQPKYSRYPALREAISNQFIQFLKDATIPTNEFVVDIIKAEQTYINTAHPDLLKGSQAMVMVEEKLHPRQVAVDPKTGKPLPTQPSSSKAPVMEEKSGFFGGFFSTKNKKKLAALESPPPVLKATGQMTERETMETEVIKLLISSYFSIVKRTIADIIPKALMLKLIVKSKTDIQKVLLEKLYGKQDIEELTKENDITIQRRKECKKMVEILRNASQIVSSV

T2: recombinant Vps1 (yeast, UniProt P21576 1-704)
T2 sequence: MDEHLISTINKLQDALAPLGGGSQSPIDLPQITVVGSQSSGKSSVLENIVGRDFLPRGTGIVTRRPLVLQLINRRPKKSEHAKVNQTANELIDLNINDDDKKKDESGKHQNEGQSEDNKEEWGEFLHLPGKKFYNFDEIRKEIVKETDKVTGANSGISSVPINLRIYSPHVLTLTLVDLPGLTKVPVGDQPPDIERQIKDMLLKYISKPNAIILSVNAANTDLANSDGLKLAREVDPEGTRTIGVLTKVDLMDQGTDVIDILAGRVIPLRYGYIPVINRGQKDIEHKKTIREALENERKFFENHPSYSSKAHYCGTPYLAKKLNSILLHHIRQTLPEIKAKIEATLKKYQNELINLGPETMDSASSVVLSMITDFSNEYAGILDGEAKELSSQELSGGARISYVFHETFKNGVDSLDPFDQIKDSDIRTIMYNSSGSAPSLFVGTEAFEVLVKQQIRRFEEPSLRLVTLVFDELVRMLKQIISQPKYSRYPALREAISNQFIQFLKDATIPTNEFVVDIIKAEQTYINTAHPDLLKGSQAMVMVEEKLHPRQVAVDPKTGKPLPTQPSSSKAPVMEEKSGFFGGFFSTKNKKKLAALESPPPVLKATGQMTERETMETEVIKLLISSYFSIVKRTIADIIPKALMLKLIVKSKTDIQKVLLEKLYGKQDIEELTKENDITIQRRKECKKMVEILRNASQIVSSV


Assays:
[1] = molecular target: T1, rVps1 (His-Vps1; yeast dynamin homolog Vps1); experiment: GTPase assay, released Pi by malachite green; assay type: biochemical; settings: read-out: % inhibition at 100 uM
recombinant Vps1 = molecular target: T2, recombinant Vps1; experiment: far-Western, overlay or dot blot

inhibition at 100 µM [1] [%] | binding result (recombinant Vps1) | Molecule
~60 |  | O=C(N/N=C/c1ccc(O)c(O)c1)c1cc2ccccc2cc1O [dynasore]
 | binds | Vam3 full-length (1–252) (domain or fragment) MSFFDIEAQSSKGNSQQEPQFSTNQKTKELSNLIETFAEQSRVLEKECTKIGSKRDSKELRYKIETELIPNCTSVRDKIESNILIHQNGKLSADFKNLKTKYQSLQQSYNQRKSLFPLKTPISPGTSKERKDIHPRTEAVRQDPESSYISIKVNEQSPLLHNEGQHQLQLQEEQEQQQQGLSQEELDFQTIIHQERSQQIGRIHTAVQEVNAIFHQLGSLVKEQGEQVTTIDENISHLHDNMQNANKQLTRA
 | binds | SNARE domain of Vam3 (190–252) (domain or fragment) TIIHQERSQQIGRIHTAVQEVNAIFHQLGSLVKEQGEQVTTIDENISHLHDNMQNANKQLTRA
